Data set [1] in a line: folding stability dG unfold from chymotrypsin proteolysis; higher = more stable. Here is the method: (§1)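 Folding stability of de novo designed mini-proteins (<80 aa, no Cys; designed by TrROS, TrMRF, ProteinMPNN and the joint model) was measured by cDNA display proteolysis with trypsin and chymotrypsin. Each protease was used at 11 concentrations in a threefold dilution series plus a no-protease condition. K50 was inferred by Bayesian fitting of sequencing counts, and dG unfold was derived against a sequence-predicted unfolded-state K50 (Tsuboyama et al. method). Sequences shown include variable-length N-terminal GS-type padding (SAGGSAGG...) inside a display construct carrying a PA tag. Rows were kept only if the AF2 dimer inter-PAE was >15, to exclude likely homo-oligomers.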

The nature of data set [2]: folding stability dG unfold (combined trypsin and chymotrypsin); higher = more stable. Here is the method:
as §1

± gives the half width of the 95% confidence interval.

Consider “MDIPIKELLKKAAENGVRIVFPNGAETLSIFPDGEAVVRFPVELPDRPGIPVEEVERVIKIKEDGSLEVEGS [r1_284_TrMRF]”, for which the “folding stability dG unfold” value was -1.08 ± 0.65 kcal/mol in data set [1] and < -1 kcal/mol in data set [2].

Turning to “MTPEAFAGPGGRPLAELFLARFRRPVLDPETGLPTWEPAGVLVFPRETEPEELAAIFEALPELEEIEIAPAS [r1_132_TrMRF]”, the “folding stability dG unfold” value in data set [1] is 0.149 ± 0.22 kcal/mol; in data set [2] it was -0.149 ± 0.22 kcal/mol.

“PEISELTSEESEDGTTFTETKVTLKDPNSNKKINATRKVETEVVGDSTTVTSTLTLPKDKKTINESYTISPS [r1_374_JUSTAS]”: the “folding stability dG unfold” value was -0.591 ± 0.61 kcal/mol in data set [1] and < -1 kcal/mol in data set [2].

Take “PGEMVPIEWPVKVRVRDPNGPGNKKREVEIPIEYPYPPGQKDPEQMLEMAHELAEELAEKEGPKDVEIEPIS [r1_300_TrROS]”: the “folding stability dG unfold” value in data set [1] is 0.271 ± 0.13 kcal/mol; in data set [2], -0.474 ± 0.31 kcal/mol.

Consider “SADKVIIPFDSPEEIKGIIKEARKAGIPGKEIVIWSEDDWMYKIEVDPNKGNVEIEPVMPPEDLNDEMPSAG [r14_913_TrROS]”, for which the “folding stability dG unfold” value was determined as 0.629 ± 0.048 kcal/mol in data set [1] and 0.0128 ± 0.12 kcal/mol in data set [2].

In the case of “SAGAAAIAEKLGFSPELVEILSVEDVEYTIVVRRTGEPVKMKRPTVKVLVTDPSVPKETTAEVPVAELASAG [r5_517_JUSTAS]”, the “folding stability dG unfold” value is -0.807 ± 0.57 kcal/mol in data set [1] and -0.714 ± 0.35 kcal/mol in data set [2].

For “SAGDLGEEALKDITENSTPVSPNETRTTTAVIKYKDKLVKITTTVKVPPESGTTVLSTPIEIFSPEELKSAG [r5_96_JUSTAS]”, the “folding stability dG unfold” value in data set [1] was -0.118 ± 0.33 kcal/mol; in data set [2], < -1 kcal/mol.

As for “SAGEVETRTLPDGSVEIRRVERDPNSDQEVETRERVTFDPATGTARVPREVYRGDRWETEERVIALPASAGG [r19_289_JUSTAS]”, the “folding stability dG unfold” value in data set [1] was 0.456 ± 0.16 kcal/mol; in data set [2], -0.38 ± 0.27 kcal/mol.

As for “SAGGATTERTFTFPSSVSPEEAAAAVAAEAPPGLRVDVAPVATRADPSGVTTTTLRARFTDPAAPAAASAGG [r13_12_JUSTAS]”, the “folding stability dG unfold” value in data set [1] was 0.297 ± 0.12 kcal/mol; in data set [2], < -1 kcal/mol.

As to “SAGGDSLPENVIKIELEFEIETEDGSKIELKLEIYISPDNKIYVKAEATIILPDKPIKIEIDFEFDVSAGGS [r16_563_TrMRF]”, the entries for the “folding stability dG unfold” value in data set [1] and in data set [2] were 3.35 ± 0.27 kcal/mol and 3.59 ± 0.88 kcal/mol, respectively.

Consider “SAGGENVIIRYKDPDRFKEAIQDAPGIPPENVKTKPNPNGWNEVTFPNPEALDRLKKAGYPVDKIEPSAGGS [r16_381_TrROS]”, for which the “folding stability dG unfold” value in data set [1] is -0.351 ± 0.38 kcal/mol; in data set [2], < -1 kcal/mol.

Regarding “SAGGGMSPVGTTTSTSPSGVVTTTTTLEAPPPVVTTTTTTTTPVPPPLPPRPPYGPENRARALARAASAGGS [r16_6_JUSTAS]”, the “folding stability dG unfold” value in data set [1] was -0.146 ± 0.39 kcal/mol; in data set [2], < -1 kcal/mol.

As to “SAGGGPPGVVKPFTEETTFTVPLAGGPPVEVKTTTTTYTSADPAKRSLVTTTTTSPQNATTTTVTPLSSAGG [r13_654_JUSTAS]”, the results for the “folding stability dG unfold” value in data set [1] and in data set [2] were -0.2 ± 0.23 kcal/mol and < -1 kcal/mol, respectively.

As to “SAGGGSMVVEKPVALPPDTDVEEVAKEVAEELFPEDEKYKIEVERYPDSVRITVYDPKNGKPVIETVDSAGG [r13_724_JUSTAS]”, the “folding stability dG unfold” value in data set [1] was -0.565 ± 0.45 kcal/mol; in data set [2], < -1 kcal/mol.

Regarding “SAGGIKVKITDEDGEEKTFKVKDINVNKSPNNGMPSLKIKLANGRPWVIMIPPGRPLEPGDEITVRPLSAGG [r13_390_TrROS]”, the “folding stability dG unfold” value was -0.371 ± 0.93 kcal/mol in data set [1] and -0.452 ± 0.63 kcal/mol in data set [2].

With “SAGGKKKVVIKVEVKNKKTGKTFEKEIVIEIDENETEEQILEKAKELAKKLAEENGLEVKIVEIKPLSAGGS [r8_312_TrROS_Hall]”, the “folding stability dG unfold” value in data set [1] came out at 3.84 ± 0.18 kcal/mol; in data set [2] it was 4.43 ± 0.25 kcal/mol.

Take “SAGGKLKEAFEKNGYKAYVHPDSPVVTVEFYKPVKLENGEWKPKKLGTKTIEVDGVDLEKAYEILLKESAGG [r13_924_TrMRF]”: the entries for the “folding stability dG unfold” value in data set [1] and in data set [2] were 0.935 ± 0.29 kcal/mol and 0.402 ± 0.2 kcal/mol, respectively.

“SAGGKPGEPVKIKMRGPDGQPMTFPFYAPEPVKIKMNNPGEEHEHTIPPGEPLTFPLPPGDIEVEPVSAGGS [r16_456_TrROS]”: the figures for the “folding stability dG unfold” value in data set [1] and in data set [2] were 0.315 ± 0.2 kcal/mol and -0.171 ± 0.2 kcal/mol, respectively.

As for “SAGGLEEVAQELEAQGGEVEVRKVGGGSTEITVRLREPEAPRLLEVRLSLPPAGARLQVLSREALPPSAGGS [r16_613_JUSTAS]”, the “folding stability dG unfold” value is -0.704 ± 0.51 kcal/mol in data set [1] and < -1 kcal/mol in data set [2].

As to “SAGGLTTQETVSLTSPTNVALTVLSTSVTLSPSTRTLSYTVQGPDGTVTTETVVTPAPLPELDPSAGSAGGS [r16_132_JUSTAS]”, the “folding stability dG unfold” value was 0.346 ± 0.15 kcal/mol in data set [1] and -0.159 ± 0.15 kcal/mol in data set [2].

In the case of “SAGGMIRRITIYITDPGPSAPATTTTITVDVPPDRPDVPDEEVAQRVAESIAPKTGATATVEKIEEVSAGGS [r8_101_JUSTAS]”, the figures for the “folding stability dG unfold” value in data set [1] and in data set [2] were 0.406 ± 0.071 kcal/mol and -0.159 ± 0.15 kcal/mol, respectively.

With “SAGGMKAKATFKIPKTFVDPKNNSPKISESEITIEREFKSEEEAKEFVEKIKEELPPELTELVSLELESAGG [r19_209_JUSTAS]”, the “folding stability dG unfold” value in data set [1] is -0.601 ± 0.48 kcal/mol; in data set [2], < -1 kcal/mol.

Take “SAGGMKIIKELYDKLPPEVKYFSVPFHYPTGKVEPVKPSPTLSMFEPFNPETGEVDRFVVYRDKIEPLSAGG [r13_803_TrMRF]”: the figures for the “folding stability dG unfold” value in data set [1] and in data set [2] were 0.0804 ± 0.18 kcal/mol and -0.229 ± 0.24 kcal/mol, respectively.

For the sequence “SAGGMKKITIPMKVLEEKFGIPKNTSPEELAKKLNPKEKVEVLSVTSEKSENGEENPTVTVLVIPPKESAGG [r13_723_TrMRF]”, the “folding stability dG unfold” value was 0.0873 ± 0.14 kcal/mol in data set [1] and -0.22 ± 0.15 kcal/mol in data set [2].

For the sequence “SAGGMKVEDFVLELPTPEGKKILVEAVKVTTDPEAGLISVELKTPDKKEKLTLSPDEYVRGPSPEEFLKSAG [r5_15_JUSTAS]”, the “folding stability dG unfold” value was -0.376 ± 0.19 kcal/mol in data set [1] and -0.562 ± 0.33 kcal/mol in data set [2].

For the sequence “SAGGMPATLEVRLPDGAGAVGVVRADDPDEIIEAARAIPADAPVVLTTDDPAYGRLFLEAGFDVVTLESAGG [r13_476_TrMRF]”, the “folding stability dG unfold” value in data set [1] is 0.241 ± 0.066 kcal/mol; in data set [2], -0.138 ± 0.16 kcal/mol.

Turning to “SAGGMTETATTTTTLPDGTVVTTGTTTVTEGSSTTTTTFTTVTTVAPVPPPPYPPAPLPWPEDPVLASAGGS [r8_269_JUSTAS]”, the “folding stability dG unfold” value in data set [1] is 0.142 ± 0.15 kcal/mol; in data set [2], < -1 kcal/mol.

Consider “SAGGMTVTVPFTSEEELEAAIEAAPSSLTTVTTTDPARGLRRTLNVDPATRAVVETEEEAVDPEDPALSAGG [r13_945_JUSTAS]”, for which the “folding stability dG unfold” value was -0.377 ± 0.14 kcal/mol in data set [1] and < -1 kcal/mol in data set [2].

Take “SAGGPAGEEVPVRITARIYMPDPDGKMHSHEIPIDIPMPVDELKEKLIKEIMDEHGYHITEIDIEPYSAGGS [r16_511_TrROS]”: the “folding stability dG unfold” value in data set [1] is -0.432 ± 0.21 kcal/mol; in data set [2], -0.711 ± 0.25 kcal/mol.

As for “SAGGPDPYNLKVEEETYPNPDGGEMKIPKIEIPDGRLKIDMEMRNPGNGKEHEHEITIPVKPGQEIFISAGG [r13_190_TrROS]”, the “folding stability dG unfold” value in data set [1] came to 0.906 ± 0.14 kcal/mol; in data set [2] it was 0.0459 ± 0.21 kcal/mol.

For the sequence “SAGGPEKKILVARDSSDPNLPLEKIKEELEKKGFPPAEVTSAATEPLEKAREKAEKEGNPLIVLPVESAGGS [r16_94_JUSTAS]”, the “folding stability dG unfold” value in data set [1] is -0.927 ± 0.32 kcal/mol; in data set [2], < -1 kcal/mol.

In the case of “SAGGPIKRDPDGKIEIHYNEDNGRWHVKIRDPGKPKKEREFKSPDDANEFAKSFANDGWKIDKVEPYPSAGG [r13_727_TrROS]”, the figures for the “folding stability dG unfold” value in data set [1] and in data set [2] were 1.08 ± 0.25 kcal/mol and 0.834 ± 0.32 kcal/mol, respectively.

Consider “SAGGPISVGEIEHAADNVDNSHQNGDPNEMMELYDEAEEIQDQYEENGDPEVRDEVKKVVERAKRHMGSAGG [r13_137_TrROS]”, for which the “folding stability dG unfold” value was 0.364 ± 0.077 kcal/mol in data set [1] and -0.423 ± 0.45 kcal/mol in data set [2].

For the sequence “SAGGPWHEITVRAKGPPGNTPEQAVDEVADELADNNPDFTVEIQEVEVNPEDGQVEATIRVEDGKIVSAGGS [r8_26_TrROS]”, the “folding stability dG unfold” value is -0.0882 ± 0.034 kcal/mol in data set [1] and < -1 kcal/mol in data set [2].

With “SAGGSADNENNENQKPKPKPKKKLEVTIPVPLPPGDSLEEAMEQAYNIANHLAQSGKLDEVEISIFSAGGSA [r15_450_TrROS]”, the “folding stability dG unfold” value was -0.241 ± 0.4 kcal/mol in data set [1] and < -1 kcal/mol in data set [2].

As to “SAGGSAEEEEITIKLRITVYNEETGKPVKEIEIEIKVKKGQTLEQILEEAKKLLEEKGYKIVEIEISAGGSA [r15_195_TrROS_Hall]”, the “folding stability dG unfold” value in data set [1] was 4.42 ± 0.31 kcal/mol; in data set [2], 4.52 ± 0.46 kcal/mol.

With “SAGGSAGGAEKIKKKLEELGFEIVKIEKESENKIKIYVKPDNPEKIKEIKEKISSSEVDEIGNESAGGSAGG [r6_83_TrMRF]”, the “folding stability dG unfold” value in data set [1] is 0.486 ± 0.16 kcal/mol; in data set [2] it was -0.27 ± 0.17 kcal/mol.

On to “SAGGSAGGAIAPGEEVEAEVTIVDPLTGKETTAKVTLTVHPTSVTITLPGGKPAVVPAAYVRFGSAGGSAGG [r6_436_TrMRF]”, for which the results for the “folding stability dG unfold” value in data set [1] and in data set [2] were -0.176 ± 0.56 kcal/mol and -0.535 ± 0.4 kcal/mol, respectively.

As for “SAGGSAGGGGGFRVKAEVKHGGKEYPMEILIDPSEGNINIQMPNGKSITLPLNDVKIDEVEPVNSAGGSAGG [r6_185_TrROS]”, the “folding stability dG unfold” value in data set [1] was 0.341 ± 0.29 kcal/mol; in data set [2] it was 0.101 ± 0.34 kcal/mol.

Consider “SAGGSAGGGMTGATPTPRTVPLPGDRTATVYERPETGELLVELPGRRLRVSPAALAAGEVALEASAGGSAGG [r6_940_JUSTAS]”, for which the entries for the “folding stability dG unfold” value in data set [1] and in data set [2] were 0.113 ± 0.22 kcal/mol and < -1 kcal/mol, respectively.

As to “SAGGSAGGGSMDPKVETEEFEEPGREVKREKLPDGLVVTEYTEPDGPKSTVVTDPETGKVTVIGSAGGSAGG [r6_159_JUSTAS]”, the “folding stability dG unfold” value in data set [1] turned out to be 0.653 ± 0.079 kcal/mol; in data set [2], 0.082 ± 0.15 kcal/mol.

As for “SAGGSAGGLKPGDTVTLPIEIWIMHMETKKDPNGDPEPRMEPYPYRIPITIPADDLNDGKITLTSAGGSAGG [r6_138_TrROS]”, the figures for the “folding stability dG unfold” value in data set [1] and in data set [2] were 0.0398 ± 0.46 kcal/mol and < -1 kcal/mol, respectively.

The values above are taken from the supplement of paper PMC12764529.
